Experimental data taken from paper PMC12756002, “Mutations in Hsp40 co-chaperone change the canonical interdomain interactions stimulating LGMDD1 myopathy” (The Journal of Biological Chemistry, 2025).

T1: full-length Rnq1 (yeast, UniProt P25367 1-405)
T1 construct: also called FL Rnq1; Rnq1-WT
T1 sequence (looked up): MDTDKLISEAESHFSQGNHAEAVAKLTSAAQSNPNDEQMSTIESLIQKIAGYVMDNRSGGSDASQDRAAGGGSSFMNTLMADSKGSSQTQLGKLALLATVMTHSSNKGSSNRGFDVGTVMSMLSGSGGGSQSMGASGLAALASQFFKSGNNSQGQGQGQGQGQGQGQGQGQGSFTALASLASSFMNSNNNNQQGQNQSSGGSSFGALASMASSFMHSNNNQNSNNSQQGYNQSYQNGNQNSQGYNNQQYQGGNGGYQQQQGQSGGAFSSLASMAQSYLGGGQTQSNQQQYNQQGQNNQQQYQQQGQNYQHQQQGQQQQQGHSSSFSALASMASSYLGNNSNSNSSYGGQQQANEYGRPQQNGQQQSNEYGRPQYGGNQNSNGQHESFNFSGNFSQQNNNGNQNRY


Legend:
[1] = target: T1, full-length Rnq1; assay: ELISA; denatured substrate (FL Rnq1 or ΔN Rnq1 400 ng, luciferase 100 ng) immobilised in microtiter wells; dilutions of Sis1-WT or mutants (0-20 or 0-25 nM) in PBS-T with 0.5% BSA, overnight at room temperature; retained Sis1 detected with an anti-Sis1 antibody; details: both partners purified
[2] = target: T2, Ssa1-WT (yeast, UniProt P10591 1-642); assay: ELISA; Ssa1 (200 nM) immobilised in microtiter wells; dilutions of Sis1-WT or mutants (0-50 nM); bound Sis1 detected with an anti-Sis1 antibody; no client; details: both partners purified
T2 construct: Ssa1, yeast Hsp70; Cloned into pPROEx-Htb; cleavage of the tag follows from 'the remaining purification steps were analogous to those for Sis1-WT'; also called Hsp70; source: E. coli Rosetta 2(DE3), purified (Talon resin, steps analogous to Sis1)
T2 sequence (P10591 whole entry): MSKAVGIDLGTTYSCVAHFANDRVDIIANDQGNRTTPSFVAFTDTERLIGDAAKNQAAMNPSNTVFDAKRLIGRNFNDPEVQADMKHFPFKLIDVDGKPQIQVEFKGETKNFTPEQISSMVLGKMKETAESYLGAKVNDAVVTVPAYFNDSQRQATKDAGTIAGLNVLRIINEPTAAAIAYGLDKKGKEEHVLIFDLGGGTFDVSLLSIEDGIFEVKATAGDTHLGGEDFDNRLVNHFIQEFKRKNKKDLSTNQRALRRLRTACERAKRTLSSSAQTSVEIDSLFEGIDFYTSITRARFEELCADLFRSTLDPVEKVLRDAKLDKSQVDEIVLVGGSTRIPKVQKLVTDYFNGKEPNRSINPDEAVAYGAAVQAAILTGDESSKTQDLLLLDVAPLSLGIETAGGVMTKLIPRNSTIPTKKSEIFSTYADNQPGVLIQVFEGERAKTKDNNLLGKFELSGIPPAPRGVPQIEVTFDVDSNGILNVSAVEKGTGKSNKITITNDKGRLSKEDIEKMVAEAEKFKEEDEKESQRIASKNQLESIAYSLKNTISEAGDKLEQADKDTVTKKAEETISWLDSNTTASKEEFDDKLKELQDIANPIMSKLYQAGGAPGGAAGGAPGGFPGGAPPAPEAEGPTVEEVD

binding result [1]	binding result [2]	Binder
binds	binds	Sis1-S49V (natural protein, yeast, UniProt P25294 1-352, looked up, Sis1, essential yeast DNAJ (Hsp40) protein, with the J-domain mutation S49V; also called homologous to DNAJB6-A50V; LGMDD1 J-domain mutant; source: E. coli Lemo21(DE3), purified (Talon cobalt resin, TEV cleavage, second Talon pass)) MVKETKLYDLLGVSPSANEQELKKGYRKAALKYHPDKPTGDTEKFKEIVEAFEILNDPQKREIYDQYGLEAARSGGPSFGPGGPGGAGGAGGFPGGAGGFSGGHAFSNEDAFNIFSQFFGGSSPFGGADDSGFSFSSYPSGGGAGMGGMPGGMGGMHGGMGGMPGGFRSASSSPTYPEEETVQVNLPVSLEDLFVGKKKSFKIGRKGPHGASEKTQIDIQLKPGWKAGTKITYKNQGDYNPQTGRRKTLQFVIQEKSHPNFKRDGDDLIYTLPLSFKESLLGFSKTIQTIDGRTLPLSRVQPVQPSQTSTYPGQGMPTPKNPSQRGNLIVKYKVDYPISLNDAQKRAIDENF
binds	binds	Sis1-E53A (natural protein, yeast, UniProt P25294 1-352, looked up, Sis1, essential yeast DNAJ (Hsp40) protein, with the J-domain mutation E53A; also called homologous to DNAJB6-E54A; LGMDD1 J-domain mutant; source: E. coli Lemo21(DE3), purified (Talon cobalt resin, TEV cleavage, second Talon pass)) MVKETKLYDLLGVSPSANEQELKKGYRKAALKYHPDKPTGDTEKFKEISEAFAILNDPQKREIYDQYGLEAARSGGPSFGPGGPGGAGGAGGFPGGAGGFSGGHAFSNEDAFNIFSQFFGGSSPFGGADDSGFSFSSYPSGGGAGMGGMPGGMGGMHGGMGGMPGGFRSASSSPTYPEEETVQVNLPVSLEDLFVGKKKSFKIGRKGPHGASEKTQIDIQLKPGWKAGTKITYKNQGDYNPQTGRRKTLQFVIQEKSHPNFKRDGDDLIYTLPLSFKESLLGFSKTIQTIDGRTLPLSRVQPVQPSQTSTYPGQGMPTPKNPSQRGNLIVKYKVDYPISLNDAQKRAIDENF
binds	binds	Sis1-N56L (natural protein, yeast, UniProt P25294 1-352, looked up, Sis1, essential yeast DNAJ (Hsp40) protein, with the J-domain mutation N56L; also called homologous to DNAJB6-S57L; LGMDD1 J-domain mutant; source: E. coli Lemo21(DE3), purified (Talon cobalt resin, TEV cleavage, second Talon pass)) MVKETKLYDLLGVSPSANEQELKKGYRKAALKYHPDKPTGDTEKFKEISEAFEILLDPQKREIYDQYGLEAARSGGPSFGPGGPGGAGGAGGFPGGAGGFSGGHAFSNEDAFNIFSQFFGGSSPFGGADDSGFSFSSYPSGGGAGMGGMPGGMGGMHGGMGGMPGGFRSASSSPTYPEEETVQVNLPVSLEDLFVGKKKSFKIGRKGPHGASEKTQIDIQLKPGWKAGTKITYKNQGDYNPQTGRRKTLQFVIQEKSHPNFKRDGDDLIYTLPLSFKESLLGFSKTIQTIDGRTLPLSRVQPVQPSQTSTYPGQGMPTPKNPSQRGNLIVKYKVDYPISLNDAQKRAIDENF
